Measurements reported in patent publication US20160103133.

Target: recombinant RhoA (UniProt P61586)
Sequence (P61586 whole entry): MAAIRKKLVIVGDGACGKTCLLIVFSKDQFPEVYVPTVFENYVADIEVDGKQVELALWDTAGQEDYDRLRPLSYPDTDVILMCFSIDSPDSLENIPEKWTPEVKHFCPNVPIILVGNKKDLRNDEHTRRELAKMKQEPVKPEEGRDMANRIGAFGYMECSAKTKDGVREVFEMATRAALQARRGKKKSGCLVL

For T7-tagged TRIO(G2699V), the “RhoGEF activity (mant-GTP exchange assay)” value was “the TRIO(G2699V) mutant was more capable of activating Rho than TRIO(WT)”.
